Measured values reported in patent US20230250157A1 (CALIFORNIA INSTITUTE OF TECHNOLOGY, published 2023).

Target: SARS-CoV-2 WA1 D614G spike on pseudovirus (SARS-CoV-2 WA1, UniProt P0DTC2 14-1252)
Experiment: cell-based or functional assay

B1: M8a-3 (antibody, V domains shown)
VH: QVQLQQPGAELVLPGASVKLSCKASGYTFTNYWMHWVKQRPGHGLEWIGEIDPFDTYIKINQKFKGKSTLTVDTSSSTAYMQLSSLTSEDSAVYYCARPDSSGYPVYFDYWGQGTTLTVSS
VL: DIVMTQSHKFMSTSVGDRVSITCKASQDVGTYIAWYQQKPGQSPKLLIYWASTRHTGVPDRFTGSGSGTNYTLTISSVQAEDLALYHCQQHYSTPYTFGGGTKLEIK
For B1, the “pseudovirus neutralization IC50” value was 0.18 mg/L.
